Experimental data as given in paper PMC9482650, “Quantitative fragmentomics allow affinity mapping of interactomes” (Nature Communications, 2022).

Experiments:
Assay in all cases: holdup assay
Parameters in all cases: key: below the threshold = too weak to quantify, mostly under pKd 3.1 to 4
[1] = target: T1, MPP2, Q14168
T1 sequence (Q14168 180-250, limits assumed, looked up): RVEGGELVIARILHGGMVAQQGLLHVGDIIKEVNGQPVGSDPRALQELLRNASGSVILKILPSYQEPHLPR

[2] = target: T2, ARHGAP21, Q5T5U3
T2 sequence (Q5T5U3 45-169, limits assumed, looked up): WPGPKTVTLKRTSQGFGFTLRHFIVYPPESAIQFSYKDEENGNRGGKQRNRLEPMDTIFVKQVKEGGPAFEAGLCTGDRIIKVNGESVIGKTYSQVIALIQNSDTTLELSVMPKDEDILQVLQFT

[3] = target: T3, LIN7B, Q9HAP6
T3 sequence (Q9HAP6 88-185, limits assumed, looked up): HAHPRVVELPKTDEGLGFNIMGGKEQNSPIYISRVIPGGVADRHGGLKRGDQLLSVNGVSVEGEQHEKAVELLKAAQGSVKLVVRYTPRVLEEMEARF

[4] = target: GRASP, Q7Z6J2
Chain of GRASP, Q7Z6J2 (Q7Z6J2 96-193): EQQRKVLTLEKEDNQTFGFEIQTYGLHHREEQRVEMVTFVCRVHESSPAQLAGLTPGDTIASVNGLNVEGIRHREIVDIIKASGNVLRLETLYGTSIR

[5] = target: LDB3, O75112
Chain of LDB3, O75112 (O75112 1-94): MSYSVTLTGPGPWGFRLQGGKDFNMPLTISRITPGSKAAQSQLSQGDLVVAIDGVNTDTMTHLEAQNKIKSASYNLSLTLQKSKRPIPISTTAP

[6] = target: DLG2_2, Q15700
Chain of DLG2_2, Q15700 (Q15700 189-283): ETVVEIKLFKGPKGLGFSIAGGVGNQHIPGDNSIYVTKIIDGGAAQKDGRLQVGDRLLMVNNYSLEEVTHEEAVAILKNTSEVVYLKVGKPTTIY

[7] = target: Inadl_8, Q8NI35
Chain of Inadl_8, Q8NI35 (Q8NI35 1425-1530): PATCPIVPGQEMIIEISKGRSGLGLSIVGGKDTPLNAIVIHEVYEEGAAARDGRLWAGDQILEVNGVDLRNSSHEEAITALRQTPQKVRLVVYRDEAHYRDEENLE

[8] = target: MAGI2_2, Q86UL8
Chain of MAGI2_2, Q86UL8 (Q86UL8 410-522): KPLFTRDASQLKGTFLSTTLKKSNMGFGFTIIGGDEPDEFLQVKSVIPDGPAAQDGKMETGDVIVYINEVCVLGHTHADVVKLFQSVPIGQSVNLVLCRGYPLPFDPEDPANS

[9] = target: Inadl_6, Q8NI35
Chain of Inadl_6, Q8NI35 (Q8NI35 1058-1167): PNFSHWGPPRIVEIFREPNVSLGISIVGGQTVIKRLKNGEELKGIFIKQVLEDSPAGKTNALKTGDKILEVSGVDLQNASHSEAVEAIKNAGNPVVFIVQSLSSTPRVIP

[10] = target: T4, NHERF3_3, Q5T2W1
T4 sequence (Q5T2W1 238-333, limits assumed, looked up): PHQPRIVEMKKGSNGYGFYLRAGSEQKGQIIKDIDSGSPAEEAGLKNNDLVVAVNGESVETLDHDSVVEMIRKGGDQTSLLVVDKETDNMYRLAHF

[11] = target: DLG5_1, Q8TDM6
Chain of DLG5_1, Q8TDM6 (Q8TDM6 617-713): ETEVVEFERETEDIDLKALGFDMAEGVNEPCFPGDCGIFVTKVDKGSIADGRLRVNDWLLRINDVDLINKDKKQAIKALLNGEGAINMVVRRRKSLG

[12] = target: T5, DFNB31_3, Q9P202
T5 sequence (Q9P202 811-907, limits assumed, looked up): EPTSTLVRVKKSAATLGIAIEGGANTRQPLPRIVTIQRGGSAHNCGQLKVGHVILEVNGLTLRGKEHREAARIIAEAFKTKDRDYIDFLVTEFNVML

[13] = target: ARHGEF12, Q9NZN5-2
Chain of ARHGEF12, Q9NZN5-2 (Q9NZN5 other isoform, or with tags, fused parts or gaps): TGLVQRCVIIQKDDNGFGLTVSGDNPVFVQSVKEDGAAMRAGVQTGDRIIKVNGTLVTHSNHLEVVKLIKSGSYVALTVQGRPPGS

[14] = target: DLG1_2, Q12959
[15] = target: Inadl_10, Q8NI35
Chain of Inadl_10, Q8NI35 (Q8NI35 1673-1763): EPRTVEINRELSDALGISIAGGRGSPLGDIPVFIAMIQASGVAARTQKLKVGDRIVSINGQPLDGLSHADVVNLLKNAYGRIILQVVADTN

[16] = target: PDZRN4_1, Q6ZMN7
Chain of PDZRN4_1, Q6ZMN7 (Q6ZMN7 213-318): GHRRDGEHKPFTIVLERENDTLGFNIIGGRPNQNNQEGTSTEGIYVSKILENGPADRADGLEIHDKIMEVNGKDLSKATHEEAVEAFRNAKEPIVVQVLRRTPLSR

[17] = target: T6, RADIL, Q96JH8
T6 sequence (Q96JH8 971-1071, limits assumed, looked up): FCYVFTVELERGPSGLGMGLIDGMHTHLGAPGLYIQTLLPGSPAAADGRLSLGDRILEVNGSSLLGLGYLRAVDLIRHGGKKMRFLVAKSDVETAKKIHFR

[18] = target: Inadl_2, Q8NI35
Chain of Inadl_2, Q8NI35 (Q8NI35 238-335): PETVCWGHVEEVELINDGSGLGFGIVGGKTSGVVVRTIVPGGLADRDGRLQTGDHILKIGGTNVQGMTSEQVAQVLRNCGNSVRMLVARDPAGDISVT

[19] = target: GRID2IP_1, A4D2P6
Chain of GRID2IP_1, A4D2P6 (A4D2P6 1-87): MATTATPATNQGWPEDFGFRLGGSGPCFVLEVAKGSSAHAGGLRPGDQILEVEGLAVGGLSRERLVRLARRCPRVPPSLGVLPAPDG

[20] = target: DLG1_1, Q12959
[21] = target: T7, APBA2_2, Q99767
T7 sequence (Q99767 654-744, limits assumed, looked up): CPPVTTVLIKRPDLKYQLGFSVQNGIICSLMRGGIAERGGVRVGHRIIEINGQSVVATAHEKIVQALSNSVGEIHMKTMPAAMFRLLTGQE

[22] = target: T8, TIAM2, Q8IVF5
T8 sequence (Q8IVF5 885-986, limits assumed, looked up): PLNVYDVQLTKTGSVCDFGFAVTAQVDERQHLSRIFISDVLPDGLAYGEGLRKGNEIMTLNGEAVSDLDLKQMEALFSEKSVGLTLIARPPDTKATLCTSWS

[23] = target: T9, NHERF3_1, Q5T2W1
T9 sequence (Q5T2W1 4-100, limits assumed, looked up): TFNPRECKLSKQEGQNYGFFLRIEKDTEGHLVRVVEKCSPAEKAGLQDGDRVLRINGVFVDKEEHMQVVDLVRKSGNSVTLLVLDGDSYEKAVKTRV

[24] = target: PDLIM1, O00151
Chain of PDLIM1, O00151 (O00151 1-87): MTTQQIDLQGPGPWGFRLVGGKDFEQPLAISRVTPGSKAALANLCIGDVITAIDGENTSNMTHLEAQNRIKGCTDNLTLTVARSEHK

[25] = target: NHERF4_1, Q86UT5-2
Chain of NHERF4_1, Q86UT5-2 (Q86UT5 other isoform, or with tags, fused parts or gaps): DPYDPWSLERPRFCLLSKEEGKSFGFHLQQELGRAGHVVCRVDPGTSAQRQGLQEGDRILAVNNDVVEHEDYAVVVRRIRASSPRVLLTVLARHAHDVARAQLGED

[26] = target: T10, RHPN1, Q8TCX5
T10 sequence (Q8TCX5 508-602, limits assumed, looked up): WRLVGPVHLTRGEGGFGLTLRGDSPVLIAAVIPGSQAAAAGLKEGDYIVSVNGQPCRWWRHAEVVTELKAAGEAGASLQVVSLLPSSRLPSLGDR

[27] = target: GIPC2, Q8TF65
Chain of GIPC2, Q8TF65 (Q8TF65 112-203): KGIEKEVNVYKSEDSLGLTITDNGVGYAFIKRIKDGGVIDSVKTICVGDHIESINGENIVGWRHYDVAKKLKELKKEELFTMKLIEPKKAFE

[28] = plain residues with an end cap or a label only (N-terminal biotin on a linker: ttds)
[29] = plain residues with an end cap or a label only (N-terminal biotin on a linker: ahx)
[30] = plain residues with an end cap or a label only (N-terminal biotin on a linker: ado-ado)

Question: Which results are given for DPLTPSRSQL [DGKK, Q5KSL6]?
Answer: pKd [1, 28]: below the threshold; pKd [2, 28]: below the threshold; pKd [3, 28]: below the threshold; pKd [4, 28]: 4.17; pKd [5, 28]: below the threshold; pKd [6, 28]: 3.59; pKd [7, 28]: below the threshold; pKd [8, 28]: below the threshold; pKd [9, 28]: below the threshold; pKd [10, 28]: below the threshold; pKd [11, 28]: below the threshold; pKd [12, 28]: below the threshold; pKd [13, 28]: 3.86; pKd [14, 28]: below the threshold; pKd [15, 28]: below the threshold; pKd [16, 28]: below the threshold; pKd [17, 28]: below the threshold; pKd [18, 28]: below the threshold; pKd [19, 28]: below the threshold; pKd [20, 28]: 4.01; pKd [21, 28]: below the threshold; pKd [22, 28]: below the threshold; pKd [23, 28]: below the threshold; pKd [24, 28]: below the threshold; pKd [25, 28]: 3.81; pKd [26, 28]: below the threshold; pKd [27, 28]: below the threshold

Question: Which results are given for HSGSYLVTSV [APC, P25054]?
Answer: pKd [1, 29]: below the threshold; pKd [2, 29]: below the threshold; pKd [3, 29]: below the threshold; pKd [4, 29]: 5.06; pKd [5, 29]: below the threshold; pKd [6, 29]: 5.11; pKd [7, 29]: 4.84; pKd [8, 29]: 4.18; pKd [9, 29]: 3.81; pKd [10, 29]: below the threshold; pKd [11, 29]: below the threshold; pKd [12, 29]: 3.67; pKd [13, 29]: 5.02; pKd [14, 29]: 5.21; pKd [15, 29]: 3.64; pKd [16, 29]: below the threshold; pKd [17, 29]: 4.23; pKd [18, 29]: below the threshold; pKd [19, 29]: below the threshold; pKd [20, 29]: 4.6; pKd [21, 29]: below the threshold; pKd [22, 29]: below the threshold; pKd [23, 29]: below the threshold; pKd [24, 29]: below the threshold; pKd [25, 29]: below the threshold; pKd [26, 29]: 5.16; pKd [27, 29]: below the threshold

Question: What does the source list for RNCSTNDSLL [ADRB2, P07550]?
Answer: pKd [1, 29]: below the threshold; pKd [2, 29]: 3.56; pKd [3, 29]: below the threshold; pKd [4, 29]: below the threshold; pKd [5, 29]: below the threshold; pKd [6, 29]: below the threshold; pKd [7, 29]: below the threshold; pKd [8, 29]: below the threshold; pKd [9, 29]: below the threshold; pKd [10, 29]: below the threshold; pKd [11, 29]: below the threshold; pKd [12, 29]: below the threshold; pKd [13, 29]: below the threshold; pKd [14, 29]: below the threshold; pKd [15, 29]: 3.56; pKd [16, 29]: below the threshold; pKd [17, 29]: below the threshold; pKd [18, 29]: below the threshold; pKd [19, 29]: below the threshold; pKd [20, 29]: below the threshold; pKd [21, 29]: below the threshold; pKd [22, 29]: below the threshold; pKd [23, 29]: 3.89; pKd [24, 29]: 3.77; pKd [25, 29]: 3.88; pKd [26, 29]: 3.94; pKd [27, 29]: below the threshold

Question: What does the source list for QKNKDKEYYV [NRXN3_rs746444206, Q9Y4C0]?
Answer: pKd [1, 30]: 4.12; pKd [2, 30]: 4.09; pKd [3, 30]: 3.59; pKd [4, 30]: below the threshold; pKd [5, 30]: below the threshold; pKd [6, 30]: below the threshold; pKd [7, 30]: below the threshold; pKd [8, 30]: 4.02; pKd [9, 30]: below the threshold; pKd [10, 30]: below the threshold; pKd [11, 30]: below the threshold; pKd [12, 30]: 3.82; pKd [13, 30]: below the threshold; pKd [14, 30]: below the threshold; pKd [15, 30]: below the threshold; pKd [16, 30]: below the threshold; pKd [17, 30]: 4.51; pKd [18, 30]: 4.92; pKd [19, 30]: below the threshold; pKd [20, 30]: below the threshold; pKd [21, 30]: below the threshold; pKd [22, 30]: 4.34; pKd [23, 30]: 4.43; pKd [24, 30]: below the threshold; pKd [25, 30]: below the threshold; pKd [26, 30]: below the threshold; pKd [27, 30]: below the threshold
